Laboratory results: patent US20250355001A1, “METHOD FOR DETECTING A TAU PROTEIN FRAGMENT IN A SAMPLE” (GTINVENT LIMITED, priority 2022, published 2025)

What was measured:
dGA (SEQ ID NO: 5) = dGA (SEQ ID NO: 5) (Homo sapiens, UniProt P10636); assay: Biacore X100 SPR kinetics of scAbs for dGA; assay type: binding; details: Table 24, scAb, dGA analyte; for Kd: dissociation rate
Protocol: (§1) Surface plasmon resonance (SPR) is widely regarded as the gold standard for real time measurement of protein-protein interactions such as antibody binding. All SPR experiments were carried out using a Biacore X100 machine and HBS EP+ running buffer (GE Healthcare). A ‘capture’ method was followed for affinity measurements, where an anti-human constant kappa chain (HuCk) antibody was conjugated to the surface of a CM5 sensor chip using an amine coupling kit and scAb molecules were immobilised via their HuCk domain. Amine coupling is a very common approach for immobilising the ligand to the chip surface. The chip surface has a dextran matrix derivatised with carboxyl groups, which after activation with N-hydroxysuccinimide (NHS) and 1-ethyl-3-(3-dimethylaminopropyl) carbodiimide (EDC), form reactive succinimide esters which allows the covalent capturing of the ligand via any available primary amine groups (e.g. Lysine) on the ligand (in this case anti-HuCk antibody). The capture antibody was diluted 1/100 in 10 mM Sodium acetate buffer pH 5.0 and passed over the activated chip surface for a period of at least 420 s. Final ligand immobilisation levels over 12,000 RU were deemed to be satisfactory.
(§2) Following immobilisation, the level of each scAb to be captured was identified using the standard SPR equation with a theoretical RMax of 100 RU. Analyte MW refers to the molecular weight of hT40 or dGA/dGAE molecules, while ligand MW refers to the molecular weight of the scAbs tested. RL is the desired capture level and S refers to the stoichiometric ratio:
(§3) The scAb to be tested was added only to flow cell 2 so that flow cell 1 could act as a control to subtract any interaction with the analyte and the chip surface. Both single and multi-cycle runs were utilised using wizards developed in the Biacore X100 control software which are both accepted methods of kinetic analysis (Karlsson, R., et al. Analyzing a kinetic titration series using affinity biosensors (2006) Analytical Biochemistry 349:136-47). The multi-cycle protocol was as follows-Three start-up cycles composed of an initial capture, to the desired level, of the scAb to be tested was performed followed by a 30 s injection of glycine buffer pH 2.0 after each cycle to regenerate the chip surface. The regeneration step removed any captured scAb whilst leaving the capture antibody intact and able to repeat the capture for the next cycle. Following three start-up cycles increasing concentrations (0.15625 nM-100 nM) of the target to be tested were added to the chip surface after the desired scAb capture. The target was added for a 120 s association period and 420 s dissociation period followed by another regeneration, 30 s injection of glycine buffer pH 2.0 in between each cycle.
(§4) The single cycle kinetics protocol was similar and utilised the same level of scAb capture. Three start-up cycles were used followed by 5 increasing concentrations of the analyte (6.25 nM-100 nM) for an association period of 120 s followed by a dissociation period of 420 s for each concentration. In single cycle kinetics the regeneration step was performed only after the final analyte concentration was added. Binding responses were analysed in Biacore X100 evaluation software and data fitted to a 1:1 binding model to obtain kinetic and affinity characterisation.

htau40 = biological target: T1, htau40 (Homo sapiens, UniProt P10636); assay: Biacore X100 SPR kinetics of anti-tau mAbs on immobilised htau40; assay type: binding
T1 construct: Full length tau (hT40)
Protocol: For anti-tau mAb SPR measurements, htau40 was conjugated to the surface of a CM5 sensor chip using amine coupling as explained previously. Briefly, 2 μg/mL htau40 in 10 mM Sodium acetate buffer (pH 4.0) was passed over the activated chip surface (EDC/NHS) in flow cell 2 for a period for 45 s followed by blocking with 1 M ethanolamine-HCl PH 8.5. Flow cell 1 was set up as reference control and blocked simultaneously. Final immobilisation level of htau40 (Rmax) was approximately 250 RU. Following a minimum of three start-up cycles, increasing concentrations (0.78 nM-25 nM) of the mAb in HBS-EP+ buffer was added at a rate of […] to the chip. The mAb was added for a 120 s association period and 600 s dissociation period followed by a regeneration cycle of 30 s injection of glycine buffer pH 1.5 in between each cycle. Binding responses were analysed in Biacore X100 evaluation software and data fitted to a 1:1 binding model to obtain kinetic and affinity characterisation.
For anti-tau mAb SPR measurements (Biacore X100™) and epitope mapping, the same methodologies described above (see Example 16) were followed. Kinetic rates and equilibrium binding constants of additional anti-tau mAbs and the regions recognised on hT40 are given in the Table 25 below

[1] = tested on: hT40, dGA, dGAE and truncated tau fragments; assay: Binding ELISA / epitope mapping of anti-tau scAbs with truncated tau proteins and 13mer peptides; set-up: species or system human; details: for Tau proteins/fragments with positive scAb reactivity: binding ELISA; for Short epitope on hT40: Table 18, '3a' & '3b' series scAbs; for hT40 binding region: second Table 25, mAb format
Summary of the method: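 Plates coated with 1 μg/ml tau protein, or 5 μg/ml streptavidin then 1 μg/ml biotinylated 13mer peptide; blocked with 2% MPBS. scAbs added at a starting concentration and double-diluted. Bound scAb detected with HRP anti-human C kappa and read as absorbance.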

[2] = biological target: T2, hT40 (T441, SEQ ID NO: 1) (Homo sapiens, UniProt P10636); assay: Biacore X100 SPR kinetics of scAbs for hT40; assay type: binding
T2 construct: Full length tau (hT40)
Protocol: as §1, with “The chip surface has a dextran matrix derivatised with carboxyl groups, which after activation with N-hydroxysuccinimide (NHS) and 1-ethyl-3-(3-dimethylaminopropyl) carbodiimide (EDC), form reactive succinimide esters which allows the covalent capturing of the ligand via any available primary amine groups (e.g. Lysine) on the ligand (in this case anti-HuCk antibody).” left out
as §2
as §3, with “The regeneration step removed any captured scAb whilst leaving the capture antibody intact and able to repeat the capture for the next cycle.” left out
as §4

[3] = Table 27, mAb format, immobilised htau40
[4] = Table 26 summary, top scAbs, residues of hT40
[5] = residue numbers of SEQ ID NO: 1 (hT40), CDR Tables 1-11
[6] = Table 23, scAb captured, T441 (hT40) analyte, 1:1 model
[7] = second Table 25, newly converted mAbs, hT40
[8] = Table 25, '3a' and '3b' scAbs, hT40

T2 sequence (P10636 1-441 isoform P10636-8): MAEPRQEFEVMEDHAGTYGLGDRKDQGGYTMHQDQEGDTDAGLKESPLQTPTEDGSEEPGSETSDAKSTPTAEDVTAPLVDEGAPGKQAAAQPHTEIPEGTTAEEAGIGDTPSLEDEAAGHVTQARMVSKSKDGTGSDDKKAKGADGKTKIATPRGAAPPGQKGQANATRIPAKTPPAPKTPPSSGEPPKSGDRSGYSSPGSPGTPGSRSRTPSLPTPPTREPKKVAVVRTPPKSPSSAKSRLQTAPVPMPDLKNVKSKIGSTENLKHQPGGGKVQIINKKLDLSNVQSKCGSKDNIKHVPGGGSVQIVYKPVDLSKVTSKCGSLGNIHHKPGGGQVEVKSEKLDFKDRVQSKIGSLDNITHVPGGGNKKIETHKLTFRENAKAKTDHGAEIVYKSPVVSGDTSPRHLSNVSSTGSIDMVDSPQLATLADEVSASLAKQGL
T1 sequence (P10636 1-441 isoform P10636-8): as above
dGA (SEQ ID NO: 5), sequence (P10636 614-707): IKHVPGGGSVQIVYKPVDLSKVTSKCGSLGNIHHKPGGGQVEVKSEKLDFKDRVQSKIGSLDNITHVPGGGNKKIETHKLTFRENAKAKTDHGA

B1: NS2A1: anti-tau clone, Table 11; SEQ ID NO: 220 (protein)
scFv: QVQLQESGPSLVKPSQTLSLTCTVSGFSLSTNSVGWVRQAPGKAPEWVAGIDTDGEEGFNPVLKSRLSITRDTSKSQVSLSLSNVTSEDTAVYYCGRSYRTDGLAYGYVQAIDYWGPGLLVTISSEGKSSGASGESKVDDQSVLTQPSSVSGSPGQTVSITCSGSYIGSSGVGWFQQLPGSGLRTIIVASDGRPSGVPDGFSMSKSGNTATLTISSLQAEDEADYFCGSSDRTQYTGLFGSGTRLTVLG
modifications: NS2A1 amino acid sequence
dGA (SEQ ID NO: 5)
  ka: 188000 M⁻¹ s⁻¹
  Kd: 0.00102 s⁻¹
htau40; [3]
  ka: 893700 M⁻¹ s⁻¹
  kd: 0.002621 s⁻¹
[1]; Table 16, NS, S and M clones
  Tau proteins/fragments with positive scAb reactivity: hT40, 297-390 (dGA), 297-391 (dGAE)
[1]; [4]
  Epitope: 297-390
[1]; [5]
  Epitope: 297-390
[2]; [6]
  ka: 252100 M⁻¹ s⁻¹
  kd: 0.0007393 s⁻¹

B2: 3bG4: N-terminal anti-tau clone, Table 6; SEQ ID NO: 425 (protein)
chain: QVQLQESGPSLVKPSQTLSLTCTISGFSLISNGVGWVRQAPGKVPEWVGDIASSGKAYSNPALKSRLSITRDTSKSQVSLSLRSVTTEDTAVYYCVRCRDGGVTYGYDIDYWGPGLLVTVSSEGKSSGASGESKVDDQAVLTQPSSVSKSLGQSVSITCSGSTSNVGSGNDVSWFQQVPGSAPKLLFYGATNRASGVPDRFSGSRSGNTATLTITSLQAEDEADYYCGSYDSNSGGIFGSGTRLTVLG
modifications: 3bG4 amino acid sequence
htau40; [7]
  ka: 4.54e+06 M⁻¹ s⁻¹
  kd: 0.0002964 s⁻¹
[1]
  Short epitope on hT40: 1-49
  hT40 binding region: 1-15
[1]; [5]
  Epitope: 1-49
[1]; second Table 26, own antibodies
  Binding region hT40: (Binding region hT40 1-15)
[2]; [8]
  ka: 6.669e+06 M⁻¹ s⁻¹
  kd: 0.05966 s⁻¹

B3: 3aH6: N-terminal anti-tau clone, Table 6; SEQ ID NO: 423 (protein)
chain: QVQLQESGPSLVKPSQTLSLTCTVSGFSLSSNGVGWVRQAPGKVPEWLGDISSVGKKYANPALKSRLSFTRDTSKSQVSLSLSSVTTEDTAVYYCVKCRDGGVTYGYDIDYWGPGLLVTASSEGKSSGASGESKVDDQAVVTQPSSVSGSLGQSVSITCSGSSGNVGYGDYVSWFQQFHGSAPKLLIYGATNLASGVPARFSGSRSGNTATLTISSLHAEDEADYYCASYDSSSGGVFGSGTRLTVLG
modifications: 3aH6 amino acid sequence
htau40; [7]
  ka: 3.128e+06 M⁻¹ s⁻¹
  kd: 0.0001522 s⁻¹
[1]
  Short epitope on hT40: 1-49
  hT40 binding region: 1-15
[1]; [5]
  Epitope: 1-49
[2]; [8]
  ka: 2.757e+06 M⁻¹ s⁻¹
  kd: 0.009868 s⁻¹

B4: S1E12: anti-tau clone, Table 11; SEQ ID NO: 218 (protein)
scFv: QVQLQESGPSLVKPSQTLSLTCTVSGFSLGSNSVGWVRQAPGKAPEWVAGIDTDGEEGYNPALNSRLSITRDTSKSQVSLSLSSVTSEDTAVYYCGRSYRADGLAYGYVQAIDYWGPGLLVTVSSEGKSSGASGESKVDDRVVRTQPSSVSGSLGQRVSITCSGSFIGISSVGWFQQLPGSGLRTIIVASDGRPSGVPDRFSMSKSGNTATLTISSLQAEDEADYFCGSSDRTQYTGVFGSGTRLTVLG
modifications: S1E12 amino acid sequence
dGA (SEQ ID NO: 5)
  ka: 2.99e+06 M⁻¹ s⁻¹
  Kd: 0.001627 s⁻¹
[1]; Table 16, NS, S and M clones
  Tau proteins/fragments with positive scAb reactivity: hT40, 297-390 (dGA), 297-391 (dGAE)
[1]; Table 16, NS, S and M clones, incl. 13mer peptides
  Shortest region bound on hT40: 297-390
[1]; [4]
  Epitope: 297-390
[1]; [5]
  Epitope: 297-390
[2]; [6]
  ka: 385000 M⁻¹ s⁻¹
  kd: 0.000319 s⁻¹
